# Source: patent publication US20140141019A1
# Target: HER3 receptor on cells (HER3-transfected NIH 3T3 fibroblasts; SKBR3 cells; BxPC3 cells) (human) (UniProt P21860)
# Assay: flow cytometry competition on SKBR3 cells; HRG varied against anti-HER3 antibody (H4B-121, control antibody D) at its 50% maximal binding concentration
substance,measurement,value
heregulin (from UniProt Q02297 177-241) (ligand),IC50,2.5 nM
